For 1 molecule, PLA foci per nucleus (PLA foci per nucleus) results are on record in publication PMC4914320.

The target of this assay is Telomeric repeat binding factor 2 (TRF2), endogenous (human (endogenous in C1, UTC8505, RD and HEK293T cells)). Nature of the assay: proximity ligation; Duolink PLA in fixed, permeabilised C1 cells with antibodies to HMGA2 (D1A7), TRF2 and RAP1; a minimum of 30 nuclei quantified.

B1: High Mobility Group AT-hook protein 2 (HMGA2), endogenous (natural protein)
chain: MSARGEGAGQPSTSAQGQPAAPAPQKRGRGRPRKQQQEPTGEPSPKRPRGRPKGSKNKSPSKAAQKKAEATGEKRPRGRPRKWPQQVVQKKPAQEETEETSSQESAEED
B1: the PLA foci per nucleus (PLA foci per nucleus) came to 5.
